How the values were obtained:
[1] = molecular target: T1, human ROR1 expressed on the cell surface (human, UniProt Q01973 30-937); assay: flow cytometry on HCC1143 cells (breast cancer), C2E3 IgG, FITC anti-human Fc detection
T1 construct: whole, on cells; also called cell surface-expressed ROR1 antigen; ROR1 on JeKo-1, Mino, CHO-human ROR1, MC38-human ROR1 and other cancer cell lines
Description: (§1) FACS analysis (FACSCalibur, BD Biosciences) was used to analyze the binding of the anti-ROR1 antibody of the present invention to ROR1 in the above cell lines.
(§2) Specifically, the respective cell lines were dissociated and washed in PBS, then the numbers of cells were counted and adjusted to 2×10⁵ cells/200 PBS. Then, they were treated with 10 /mL of the antibody of clone name C2E3 of the ROR1 monoclonal antibodies prepared in Embodiment 3, and reacted for 1 hour at 4° C. After the reaction, the cells were washed in PBS, then FITC-marked constant region (Fc) specific antibody (Goat anti-human IgG FITC conjugate, Fc specific, Sigma, F9512, concentration 20 mg/ml) was suspended in 2 /1×10⁵ cells/200 PBS and reacted for 1 hour at 4° C. After reacting, the cells were washed with PBS and analyzed with the FACSCalibur equipment. The negative control was only treated with FITC-marked constant region (Fc) specific antibody. To compare the degree of ROR1 expression among the respective cancer cell lines, the quotient of dividing the shifted readings for the experimental group treated with the ROR1 monoclonal antibody (C2E3) of the present invention by the shifted readings for the control group (MFI Ratio: MFI of anti-ROR1/MFI or 2nd Ab) is indicated.

[2] = molecular target: T1, human ROR1 expressed on the cell surface; assay: flow cytometry on DLD-1 cells (colon cancer), C2E3 IgG, FITC anti-human Fc detection
Description: as §1, §2

T1 sequence (Q01973 30-937): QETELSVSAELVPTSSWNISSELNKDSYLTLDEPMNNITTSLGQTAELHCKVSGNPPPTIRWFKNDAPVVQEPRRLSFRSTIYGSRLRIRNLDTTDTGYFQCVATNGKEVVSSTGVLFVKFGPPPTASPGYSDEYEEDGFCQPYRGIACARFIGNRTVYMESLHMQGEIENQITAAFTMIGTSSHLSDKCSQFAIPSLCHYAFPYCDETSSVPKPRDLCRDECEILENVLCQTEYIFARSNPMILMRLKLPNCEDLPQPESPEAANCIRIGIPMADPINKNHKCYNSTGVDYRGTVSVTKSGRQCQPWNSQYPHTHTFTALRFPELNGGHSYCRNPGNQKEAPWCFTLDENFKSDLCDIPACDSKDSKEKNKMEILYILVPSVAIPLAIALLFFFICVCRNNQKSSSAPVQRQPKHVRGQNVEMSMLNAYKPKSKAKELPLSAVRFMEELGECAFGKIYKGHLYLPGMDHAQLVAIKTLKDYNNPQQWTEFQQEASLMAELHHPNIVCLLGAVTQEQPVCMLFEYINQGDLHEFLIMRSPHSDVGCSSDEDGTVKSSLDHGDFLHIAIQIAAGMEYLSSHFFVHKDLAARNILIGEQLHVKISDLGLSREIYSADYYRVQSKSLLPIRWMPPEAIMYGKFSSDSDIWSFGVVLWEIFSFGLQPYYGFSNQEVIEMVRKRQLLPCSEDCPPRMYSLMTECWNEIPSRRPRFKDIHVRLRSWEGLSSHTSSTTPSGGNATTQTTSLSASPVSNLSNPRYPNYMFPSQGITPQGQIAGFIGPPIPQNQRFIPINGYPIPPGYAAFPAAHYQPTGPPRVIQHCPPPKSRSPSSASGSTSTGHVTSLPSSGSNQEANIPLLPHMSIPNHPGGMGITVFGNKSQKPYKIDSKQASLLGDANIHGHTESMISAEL

Mean Fold Ratio (MFI of anti-ROR1 / MFI of 2nd Ab) [1]: 3.2
Mean Fold Ratio (MFI of anti-ROR1 / MFI of 2nd Ab) [2]: 17.6
B1: anti-ROR1 IgG antibody C2E3 (antibody, V domains shown)
VH: EVQLLESGGGLVQPGGSLRLSCAASGFTFSNYAMSWVRQAPGKGLEWVSSISHNSGSTYYADSVKGRFTISRDNSKNTLYLQMNSLRAEDTAVYYCAKFISARKSLGRSYSNGMDVWGQGTLVTVSS
VL: QSVLTQPPSASGTPGQRVTISCTGSSSNIGSNDVTWYQQLPGTAPKLLIYADSKRPSGVPDRFSGSKSGTSASLAISGLRSEDEADYYCGTWDYSLSGYVFGGGTKLTVLG
notes: Full IgG form (human IgG1 constant region, lambda light chain), expressed in CHO-S cells

From patent US20210069342A1 (LEGOCHEM BIOSCIENCES, published 2021)
